Holding throughout (assay): SPR
What all share (conditions): BIACORE 3000, RsmA-His6 (961 RU) on NTA chip; running buffer 10 mM Tris-HCl pH 7.5, 150 mM NaCl, 0.05% Tween (v/v), 1 mM [text truncated]; solutions degassed …
In general terms: In SPR one partner is held on a chip, and binding of the other changes the refractive index at the surface.

The subject of series [1] is RsmA-His6 (Pseudomonas aeruginosa).
The test system is the same in series [2]. This is another data set of the same source.
The test system is the same in series [3]. This is another data set of the same source.

On to cupA1 leader RNA, for which the figures for the binding signal (% lower RU than rsmZ RNA) in series [1], in series [2] and in series [3] were 50, 67 and 59, respectively.

These data come from PMC4768041.
